Test results taken from publication doi:10.1101/2025.06.14.659664 (bioRxiv, 2025).
Positions count from the first letter of the chain named. In names and notes the source's numbering stands.

B1: GBI-Uba7-UFD fusion protein (human Uba7 ubiquitin-fold domain, residues 903-1011), wild type (domain or fragment, UniProt P41226 903-1011, looked up)
chain: IQTFHHLKWTSWDRLKVPAGQPERTLESLLAHLQEQHGLRVRILLHGSALLYAAGWSPEKQAQHLPLRVTELVQQLTGQAPAPGQRVLVLELSCEGDDEDTAFPPLHYE
B2: GBI-Uba7-UFD A1004C mutant (domain or fragment, human, UniProt P41226 903-1011, looked up)
chain: B1 chain with A102C

Biological target: UbcH8 (UniProt O14933 1-153)
Sequence (O14933 whole entry): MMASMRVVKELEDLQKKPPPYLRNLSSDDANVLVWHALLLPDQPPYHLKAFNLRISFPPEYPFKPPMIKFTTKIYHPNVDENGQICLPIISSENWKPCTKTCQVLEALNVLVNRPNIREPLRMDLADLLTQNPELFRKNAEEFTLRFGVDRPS
Assay: NMR titration

Binder | binding result
B1 | binds
B2 | binds
